Consider one substance from patent publication US20140123330.

This data set concerns btGDF83.1 TALEN pair (synthetic (TALE-FokI)). Briefly: cell_activity. The conditions noted are these: SURVEYOR; bovine fibroblasts; active at 30 and 37 C; pair called btGDF8.1 and btGDF83.1.

Some results are limits rather than exact numbers.

bovine GDF8 exon 3 target: the activity (% chromosomes cleaved) is under 16.
